Test results published in patent publication US20080044436A1, “Method for Screening and Compositions for Treating Cancers” (priority 2004, published 2008).

Target: T1, Sp1 (Homo sapiens, UniProt P08047)
T1 construct: made in house
Assay: GST pull-down, TReP-132 and Sp1
Type: binding
Settings: GST pull-down with 35S-Sp1, vs GST alone
Protocol: FIG. 13D: GST-TReP-132 proteins were incubated with ^35-[S]-Sp1 and immobilized on a glutathione-Sepharose column. Specific interactions were analyzed by comparison with the results obtained by incubating GST alone with ^35-[S]-Sp1. Sp1 input: 1/10th of radiolabelled Sp1 level used in the incubations.
In order to evaluate the interaction of TReP-132, Sp1, ER and PR, the wt and mutant GST-TReP-132 fusion proteins were expressed, then immobilized on glutathione-Sepharose as described (Frangioni and Neel, 1993; Monte et al., 1998). The ^35S-[Sp1], ^35S-[ER] and ^35S-[PR-B] proteins were synthesized in vitro using a rabbit reticulocyte lysate and T7 RNA polymerase system as directed by the manufacturer (Promega Corporation, Madison, Wis.). Proteins which bound, then detached from the Sepharose after being heated to boiling in SDS buffer were then separated on a 10% SDS-PAGE gel. The gels were stained with Coomassie blue, dried and autoradiographed.

T1 sequence (P08047 whole entry): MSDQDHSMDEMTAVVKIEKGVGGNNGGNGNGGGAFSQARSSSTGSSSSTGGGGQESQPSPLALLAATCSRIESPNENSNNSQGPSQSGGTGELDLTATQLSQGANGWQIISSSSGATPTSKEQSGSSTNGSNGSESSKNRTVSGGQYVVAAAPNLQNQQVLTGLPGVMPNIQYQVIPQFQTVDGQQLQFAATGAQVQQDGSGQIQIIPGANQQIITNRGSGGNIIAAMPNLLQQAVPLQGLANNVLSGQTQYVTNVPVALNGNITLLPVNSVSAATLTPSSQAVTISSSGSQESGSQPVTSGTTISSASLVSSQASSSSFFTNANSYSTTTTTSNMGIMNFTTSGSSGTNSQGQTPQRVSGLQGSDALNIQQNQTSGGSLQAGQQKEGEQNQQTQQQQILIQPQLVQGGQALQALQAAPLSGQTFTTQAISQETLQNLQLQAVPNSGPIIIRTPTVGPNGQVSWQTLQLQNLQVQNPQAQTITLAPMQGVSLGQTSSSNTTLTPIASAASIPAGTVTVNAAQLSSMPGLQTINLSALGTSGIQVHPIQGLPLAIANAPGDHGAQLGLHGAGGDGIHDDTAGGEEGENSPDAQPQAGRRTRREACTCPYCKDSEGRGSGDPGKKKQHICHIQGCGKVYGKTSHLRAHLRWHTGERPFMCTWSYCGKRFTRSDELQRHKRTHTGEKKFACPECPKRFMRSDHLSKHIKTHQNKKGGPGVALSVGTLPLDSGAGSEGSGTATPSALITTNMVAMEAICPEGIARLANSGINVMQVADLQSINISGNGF

interaction with Sp1: protein/protein itneraction was observed
B1: GST-TReP-132: in-frame fusion of the TReP-132 coding region downstream of GST in pGEX-2TK (protein)
chain: MGDQQLYKTNHVAHGSENLFYQQPPLGVHSGLNHNYGNAVTGGGMDAPQASPISPHFPQDTRDGLGLPVGSKNLGQMDTSRQGGWGSHAGPGNHVQLRGNLANSNMMWGAPAQAEPTDGYQYTYSQASEIRTQKLTSGVLHKLDSFTQVFANQNLRIQVNNMAQVLHTQSAVMDGAPDSALRQLLSQKPMEPPAPAIPSRYQQVPQQPHPGFTGGLSKPALQVGQHPTQGHLYYDYQQPLAQVPVQGGQPLQAPQMLSQHMQQMQQHQYYPPQQQQQAGQQRISMQEIQTQPQQIRPSQPQPPPQQQQPQQLQLQQRQGSMQIPQYYQPQPMMQHLQEQQQQQMHLQPPSYHRDPHQYTPEQAHTVQLIPLGSMSQYYYQEPQQPYSHPLYQQSHLSQHQQREDSQLKTYSSDRQAQAMLSSHGDLGPPDTGMGDPASSDLTRVSSTLPHRPLLSPSGIHLNNMGPQHQQLSPSAMWPQMHLPDGRAQPGSPESSGQPKGAFGEQFDAKNKLTCSICLKEFKNLPALNGHMRSHGGMRASPNLKQEEGEKVLPPQPQPPLPPPPPPPPPPQLPPEAESLTPMVMPVSVPVKLLPPKPSSQGFTNSTVAAPSARDKPASSMSDDEMPVLEIPRKHQPSVPKAEEPLKTVQEKKKFRHRPEPLFIPPPPSYNPNPAASYSGATLYQSQLRSPRVLGDHLLLDPTHELPPYTPPPMLSPVRQGSGLFSNVLISGHGPGAHPQLPLTPLTPTPRVLLCRSNSIDGSNVTVTPGPGEQTVDVEPRINIGLRFQAEIPELQDISALAQDTHKATLVWKPWPELENHDLQQRVENLLNLCCSSALPGGGTNSEFALHSLFEAKGDVMVALEMLLLRKPVRLKCHPLANYHYAGSDKWTSLERKLFNKALATYSKDFIFVQKMVKSKTVAQCVEYYYTWKKIMRLGRKHRTRLAEIIDDCVTSEEEEELEEEEEEDPEEDRKSTKEEESEVPKSPEPPPVPVLAPTEGPPLQALGQPSGSFICEMPNCGAVFSSRQALNGHARIHGGTNQVTKARGAIPSGKQKPGGTQSGYCSVKSSPSHSTTSGETDPTTIFPCKECGKVFFKIKSRNAHMKTHRQQEEQQRQKAQKAAFAAEMAATIERTTGPVGAPGLLPLDQLSLIKPIKDVDILDDDVVQQLGGVMEEAEVVDTDLLLDDQDSVLLQGDAEL
modifications: left off: a dimerising Fc or GST; large carriers; small tags and cut ends
notes: in-frame fusion of the TReP-132 coding region downstream of GST in pGEX-2TK
